Measured values taken from US20200002405A1 (ADMINISTRATORS OF THE TULANE EDUCATIONAL FUND, published 2020).
Where two headings read alike, the source gives them in different places.

T1: LASV Josiah (lineage IV) glycoprotein, full-length GP (Lassa virus, Josiah strain, UniProt P08669 2-491)
T1 sequence: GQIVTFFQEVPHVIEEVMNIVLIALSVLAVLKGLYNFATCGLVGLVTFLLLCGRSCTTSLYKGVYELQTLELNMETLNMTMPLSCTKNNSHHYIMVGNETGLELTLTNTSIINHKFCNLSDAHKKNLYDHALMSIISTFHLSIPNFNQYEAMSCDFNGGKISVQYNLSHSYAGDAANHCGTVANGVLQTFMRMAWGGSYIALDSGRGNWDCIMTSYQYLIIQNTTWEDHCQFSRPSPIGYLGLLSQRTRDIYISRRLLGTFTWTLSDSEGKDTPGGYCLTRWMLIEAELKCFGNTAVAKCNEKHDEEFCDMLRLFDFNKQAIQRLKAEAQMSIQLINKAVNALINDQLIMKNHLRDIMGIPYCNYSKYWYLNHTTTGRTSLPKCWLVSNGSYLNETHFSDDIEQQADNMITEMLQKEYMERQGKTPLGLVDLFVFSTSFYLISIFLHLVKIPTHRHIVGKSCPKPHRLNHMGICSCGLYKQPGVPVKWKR

T2: LCMV WE strain GP (LCMV, WE strain, UniProt P07399 2-498)
T2 construct: whole, on cells
T2 sequence: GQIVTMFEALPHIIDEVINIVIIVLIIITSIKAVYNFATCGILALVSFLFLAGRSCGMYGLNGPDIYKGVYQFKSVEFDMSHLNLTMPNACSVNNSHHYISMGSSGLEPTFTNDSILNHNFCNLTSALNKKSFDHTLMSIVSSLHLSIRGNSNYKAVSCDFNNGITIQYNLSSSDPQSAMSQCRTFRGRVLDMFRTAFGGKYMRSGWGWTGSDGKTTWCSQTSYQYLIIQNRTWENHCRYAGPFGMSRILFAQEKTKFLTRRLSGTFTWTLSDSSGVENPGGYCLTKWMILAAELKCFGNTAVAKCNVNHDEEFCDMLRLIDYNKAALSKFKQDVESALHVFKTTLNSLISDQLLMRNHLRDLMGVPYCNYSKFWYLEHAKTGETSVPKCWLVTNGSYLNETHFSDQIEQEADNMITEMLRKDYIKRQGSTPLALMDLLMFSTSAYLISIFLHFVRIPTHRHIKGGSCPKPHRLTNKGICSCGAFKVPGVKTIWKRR


Key:
[1] = target: T1, LASV Josiah (lineage IV) glycoprotein, …; test: cell-based or functional assay
[2] = target: LASV 237 (lineage III) glycoprotein (Lassa virus, strain 237); test: cell-based or functional assay
[3] = target: LASV A19 (lineage II) glycoprotein (Lassa virus, strain A19); test: cell-based or functional assay
[4] = target: LASV Pinneo (lineage I) glycoprotein (Lassa virus, strain Pinneo); test: cell-based or functional assay
[5] = target: T1, LASV Josiah (lineage IV) glycoprotein, …; test: cell-based or functional assay; remark: listed apart in the source
LCMV WE strain GP = target: T2, LCMV WE strain GP; test: cross-reactivity, immunofluorescence on GP-transfected 293T cells

Binder	IC50 (neutralization) [1]	IC80 (neutralization) [1]	IC50 (neutralization) [2]	IC80 (neutralization) [2]	IC50 (neutralization) [3]	IC80 (neutralization) [3]	IC50 (neutralization) [4]	IC80 (neutralization) [4]	IC50 (neutralization) [5]	IC80 (neutralization) [5]	binding result (LCMV WE strain GP)
37.7H (antibody, V domains shown) VH: EVQLVQSGGGLVKAGGSLRLSCAASGFTFSTYSMNWIRQAPGKGLEWVASISSRSGSHINYVDSVKGRFTISRDNARDLLYLQMNSLRVDDSALYYCARDRRSGTSPLPLDVWGQGTTVTVFS VL: DQSALTQPASVSGSPGQSITISCTGTGSDIGGYNFVSWYQQYPGKAPKLIIYEVRIRASGVSNRFSGSKSGNTASLTISGLQAEDEADYYCNSYSIHSPWVFGGGTKLTVLR	0.191 µg/mL	0.532 µg/mL	0.077 µg/mL	0.202 µg/mL	0.255 µg/mL	0.537 µg/mL	0.301 µg/mL	1.66 µg/mL	0.134 µg/mL	0.214 µg/mL	binds
37.2D (antibody, V domains shown) VH: EVQLVQSGAEVKKPGASVKVSCKASGYTFTKYGISWVRQAPGQGLEWMGWISAFNGYTRYGQRFQGKVTMTTDTSTNTASLEVRTLTSNDTAVYYCARQYPDQYSSSGWPRLFAMDVWGQGTTVIVSP VL: ETTLTQSPATLSVSPGETATLSCRASQNVINNLAWYQQKPGQAPRLLIYGASTRATGIPARFSGSGSGTEFTLTISSMQSEDFAVYYCQQYNDWPRSFGQGTRLDIRR	0.559 µg/mL	1.98 µg/mL	0.256 µg/mL	0.844 µg/mL	0.469 µg/mL	1.15 µg/mL	0.537 µg/mL	1.86 µg/mL	0.137 µg/mL	0.26 µg/mL	binds
37.2G (antibody, V domains shown) VH: EVQLVESGGGLVKPGGSRRLSCAASGFTFSRDTMTWVRQAPGKGLEWVASISSGSSDINYADSVKGRFTISRDNGKNSLYLHMNSLRADDTAIYYCARDPRSGISGRYGMDVWGQGTTVTVSS VL: DIVLTQSPGTLSLSPGERATLSCRASQSVNSIFLAWYQQKPGQAPRLLIYGASSRATGIPDRFSGSGSGTDFTLTISRLEPEDFAVYYCQQYHSSPKLTFGGGTKVEIKR	5.6 µg/mL	16 µg/mL	2.02 µg/mL	5.23 µg/mL	1.1 µg/mL	10 µg/mL	> 20 µg/mL	> 20 µg/mL	0.405 µg/mL	1.78 µg/mL	binds
